Columns and labels:
Type in all cases: biochemical
[1] = Reverse phase HPLC analysis of dCTP conversion
Experimental: The similarity of P45 to dCTP deaminases prompted us to test whether dCTP or other nucleotide triphosphates were substrates of PEF/P45. PEF was incubated with dCTP or dUTP and the reaction products were separated by reverse phase HPLC. Reaction mixtures (50 μl) containing 1× cloned Pfu polymerase buffer, 10 mM dCTP or dUTP, and 700 ng PEF (or 5 μl of cloned p45 (˜100 ng) or nothing (neg. control)) were incubated at 72° C. for 1 hour. The samples were injected on a […] Waters Delta-pak C-18 column (300 angstrom/15 μm), equilibrated in 50 mM triethylammonium acetate, pH (7.0) (A). Products were eluted with acetonitrile (B) at 2 ml/min. using the following gradient: 0% B for 5 minutes, 0-10% B over 20 minutes. Absorbence of the eluate was monitored with a photodiode array detector, and peak areas were integrated at 260 nm.

[2] = PPi production from dUTP (dUTPase activity), Sigma Enzymatic Determination of Pyrophosphate kit
Experimental: In experiments to investigate whether PPi is formed during the reaction, 900 or 1800 ng of PEF was incubated with 10 mM dUTP in 1× cloned Pfu polymerase buffer for 1 hour at 72° C. The presence of PPi in the reaction mixture was then quantified using Sigma's Enzymatic Determination of Pyrophosphate kit (Sigma Product No. P7275). The kit utilizes a coupled enzyme system whereby two moles of NADH are oxidized to NAD^+ for each mole of PPi present in the reaction mixture. The oxidation of NADH is monitored spectrophotometrically at 340 nm. […] The reactions that contained 1800 ng of PEF produced twice as much PPi as those that contained 900 ng of PEF.
The temperature optimum (Topt) for the generation of PPi from dUTP was measured by incubating mixtures of dUTP and native PEF at temperatures ranging from 73° C. to 99° C. PPi production by native PEF increased steadily over this temperature range and was highest at 99° C. […]
The enzyme activity of three different preparations of S200-purified native PEF was measured at 85° C. Protein concentrations were determined by both Bradford and by amino acid analysis. Shown below is a summary of the enzyme activity and specific activity (protein concentration determined by Bradford or AAA as indicated) of S200-purified native PEF. […]

[3] = molecular target: T1, cloned Pfu DNA polymerase (Pyrococcus furiosus, UniProt P61875); assay: 6.2 kb primer-template PCR enhancing assay
T1 sequence (P61875 1-775): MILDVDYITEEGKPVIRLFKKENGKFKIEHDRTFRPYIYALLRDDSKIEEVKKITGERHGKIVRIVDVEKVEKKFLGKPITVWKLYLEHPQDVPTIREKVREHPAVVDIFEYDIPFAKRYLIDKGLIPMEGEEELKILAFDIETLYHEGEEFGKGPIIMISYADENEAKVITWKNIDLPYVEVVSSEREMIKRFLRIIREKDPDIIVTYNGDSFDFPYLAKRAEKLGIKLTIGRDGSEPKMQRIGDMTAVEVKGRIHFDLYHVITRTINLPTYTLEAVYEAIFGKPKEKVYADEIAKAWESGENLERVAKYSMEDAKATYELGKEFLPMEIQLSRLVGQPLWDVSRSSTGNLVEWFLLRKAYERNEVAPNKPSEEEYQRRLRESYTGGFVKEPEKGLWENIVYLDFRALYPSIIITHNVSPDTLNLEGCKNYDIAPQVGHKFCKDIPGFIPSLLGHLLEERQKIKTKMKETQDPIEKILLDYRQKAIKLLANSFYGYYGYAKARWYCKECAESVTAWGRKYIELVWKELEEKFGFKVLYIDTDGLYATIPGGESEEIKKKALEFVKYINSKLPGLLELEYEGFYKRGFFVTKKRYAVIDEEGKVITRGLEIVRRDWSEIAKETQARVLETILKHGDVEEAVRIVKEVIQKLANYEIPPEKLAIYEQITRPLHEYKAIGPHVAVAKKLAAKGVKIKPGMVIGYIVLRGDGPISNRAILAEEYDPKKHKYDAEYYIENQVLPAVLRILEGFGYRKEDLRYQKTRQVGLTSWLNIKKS
Experimental: One embodiment of an assay used to screen for PEFs, in this case from Pyrococcus furiosus, involved amplifying a 6.2 kb target from transgenic mouse DNA (6.2 kb primer-template assay). A master PCR cocktail was prepared consisting of: 200 μM each dNTP, 2 μg/ml primer F432-21 (5′-CTA-TTG-AGT-ACG-AAC-GCC-ATC) (SEQ ID NO.: 62), 2 μg/ml primer R6656-20 (GTC-ACG-CTT-GCT-CCA-CTC-CG) (SEQ ID NO: 63), 2.5 μg/ml λAA742 DNA (transgenic mouse DNA having 40 copies of a lambda phage DNA shuttle vector), 1× cloned Pfu DNA polymerase PCR buffer (10 mM KCl, 10 mM (NH4)2SO4, 20 mM Tris-HCl (pH 8.8), 2 mM MgSO4, 0.1% (v/v) Triton X-100, and 100 μg/ml BSA), and 25 U/ml cloned Pfu DNA polymerase. Samples were diluted in 1× cloned Pfu DNA polymerase PCR buffer, and 1 μl of each diluted sample was added to 24 μl of the PCR cocktail. PCR amplifications were conducted on the RoboCycler 96 Temperature Cycler (Stratagene), using the following conditions: 96° C. for 45 s (1 cycle)/96° C. for 45 s; 60° C. for 45 s; 72° C. for 14 min. (35 cycles)/72° C. for 10 min. (1 cycle). PCR products (10 μl/lane) are run out on 1% agarose gels and PCR product bands visualized by ethidium bromide staining. […] When PCR enhancement is due to the presence of PEFs, rather than contaminating endogenous DNA polymerase activity, amplifications performed in the absence of […] yield no PCR product. Moreover, PCR amplifications performed in the absence of exogenous DNA template should yield no PCR product when the PEF sample lacks contaminating target DNA.

B1: PEF: polymerase enhancing factor complex purified from Pyrococcus furiosus; predominant components P50 and P45 (protein)
chain 1: MLHHVKLIYATKSRKLVGKKIVXXXPGSIAALDVKACEGLIRHGAEVHAVMSEAATKIIHPYAWNLPTGNPVITEITGFIEHVELAGEHENKADLILVCPATANTISKIACGIDDTPVTTVVTTAFPHIPIMIAPAMHETMYRHPIVRENIERLKKLGVEFIGPRIEEGRAKVASIDEIVYRVIKKLHKKTLEGKRVLVTAGATREYIDPIRFITNASSGKMGVALAEEADFRGAVTLIRTKGSVKAFRIRKIKLKVETVEEMLSAIENELRSKKYDVVIMAAAVSDFRPKIKAEGKIKSGRSITIELVPXNPKIIDRIKEIQPNVFLVGFKAETSKEKLIEEGKRQIERAKADLVVGNTLEAFGSEENQVVLIGRDFTKELPKMKKRELAERIWDEIEKXLS
chain 2: MLLPDWKIRKEILIEPFSEESLQPAGYDLRVGREAFVKGKLIDVEKEGKVVIPPREYALILTLERIKLPDDVMGDMKIRSSLAREGVIGSFAWVDPGWDGNLTLMLYNASNEPVELRYGERFVQIAFIRLEGPARNPYRGNYQGSTRLAFSKRKKL
modifications: not fully specified; X: residue not identified in the source
notes: polymerase enhancing factor complex purified from Pyrococcus furiosus; predominant components P50 and P45
deamination of dCTP [1]: No deamination | dCTP converted ([1]; 1 hour, 72° C., 700 ng PEF): 16.6% | PPi production from dUTP (in words) [2]: clearly established | temperature optimum (Topt) for the generation of PPi from dUTP ([2]; tested from 73° C. to 99° C.): > 99 °C | excess PEF giving lower PCR product yield [3]: ≥ 900 ng/100 μl | PEF concentration range enhancing performance of Pfu DNA polymerase in PCR ([3]; 10,000-fold range): 0.09-900 ng/100 μl | very low PEF concentration giving lower PCR product yield ([3]; listed as substantially homogeneous PEF): < 9 pg/100 μl

From patent publication US7943358B2, “Polymerase enhancing factor (PEF) extracts, PEF protein complexes, isolated PEF protein, and methods for purifying and identifying” (Agilent Technologies, Inc., priority 1997, dated 2011)
